± gives the standard error. Fewer inactive variants are shown than the library holds.
B1: glmS ribozyme (parent)
chain: AUAAAAGCGCCAGAACUACAGAAAUGUAGUUGACGAGGAGGAGGUUUAUCGAAUUUUCGGCGGAUGCCUCCAAA

Columns and labels:
Settings in all cases: with glucosamine-6-phosphate
glucosamine-6-phosphate [1] = variants of: B1; assay: self-cleavage kobs at 40 uM GlcN6P; higher = faster cleavage; RNA array
How it was run: (§1)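 Glucosamine-6-phosphate in HEPES/KCl/Mg(OAc)2 buffer, at 40 μM to 10 mM, was flowed over barcoded ribozyme variants transcribed in situ by E. coli RNA polymerase on sequenced MiSeq chips. Tracking was through a hybridised Cy3 probe at 37 °C. kobs, kcat and KM came from exponential decay fits and weighted Michaelis–Menten fits of normalised per-tile medians.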

glucosamine-6-phosphate [2] = variants of: B1; assay: self-cleavage kobs at 10000 uM GlcN6P; higher = faster cleavage; RNA array
How it was run: as §1

glucosamine-6-phosphate [3] = variants of: B1; assay: self-cleavage kobs at 640 uM GlcN6P; higher = faster cleavage; RNA array
How it was run: as §1

glucosamine-6-phosphate [4] = variants of: B1; assay: self-cleavage kobs at 160 uM GlcN6P; higher = faster cleavage; RNA array
How it was run: as §1

glucosamine-6-phosphate [5] = variants of: B1; assay: self-cleavage kobs at 2500 uM GlcN6P; higher = faster cleavage; RNA array
How it was run: as §1

Row | Variant | self-cleavage kobs at 40 uM GlcN6P (glucosamine-6-phosphate [1]) [s⁻¹] | self-cleavage kobs at 10000 uM GlcN6P (glucosamine-6-phosphate [2]) [s⁻¹] | self-cleavage kobs at 640 uM GlcN6P (glucosamine-6-phosphate [3]) [s⁻¹] | self-cleavage kobs at 160 uM GlcN6P (glucosamine-6-phosphate [4]) [s⁻¹] | self-cleavage kobs at 2500 uM GlcN6P (glucosamine-6-phosphate [5]) [s⁻¹]
1 | C10G U30C A33C U55A | < 1e-05 | < 1e-05 |  |  | 
2 | C34G C50A | < 1e-05 |  | < 1e-05 |  | 
3 | A12U G41A G44C U55G | < 1e-05 | < 1e-05 |  |  | 
4 | A33C G63C | < 1e-05 | < 1e-05 |  | < 1e-05 | < 1e-05
5 | U47C C61U | < 1e-05 | < 1e-05 | < 1e-05 | < 1e-05 | < 1e-05
6 | A33G C50U C67A | < 1e-05 |  |  |  | 
7 | U30G A33C A42C | < 1e-05 | < 1e-05 |  |  | 
8 | A64C G66U C68G | < 1e-05 |  | < 1e-05 |  | < 1e-05
9 | C16U G29A G37C | < 1e-05 | 5.01e-05 ± 1.6e-05 |  |  | 
10 | U46A A48U U57A G60U C67U C68A | < 1e-05 |  |  |  | < 1e-05
11 | A15C G37U | < 1e-05 | < 1e-05 | < 1e-05 |  | 
12 | U46A U57G | < 1e-05 |  |  | < 1e-05 | 
13 | A6G C67A C68U | < 1e-05 |  |  |  | 
14 | G29U A33U G35A U69A | 0.000163 ± 6.6e-05 | 6.21e-05 ± 3e-05 |  |  | 
15 | A6G G62U | < 1e-05 | < 1e-05 | < 1e-05 | < 1e-05 | < 1e-05
16 | C16A G59C | < 1e-05 |  | < 1e-05 |  | 
17 | G32A G44C C71G | < 1e-05 | < 1e-05 |  |  | 
18 | C10U G38A G66U | < 1e-05 |  |  |  | 
19 | U45G G63U | < 1e-05 | < 1e-05 | < 1e-05 | < 1e-05 | < 1e-05
20 | A12G C50U | < 1e-05 | < 1e-05 |  | < 1e-05 | 
21 | U30C G35C G59C | < 1e-05 | < 1e-05 |  |  | 
22 | G37A C50U | < 1e-05 |  |  | < 1e-05 | < 1e-05
23 | G32U A36C A53U U54A G63U | < 1e-05 | < 1e-05 |  |  | 
24 | C10G U30A A42U G51A | < 1e-05 |  |  |  | 
25 | G13U G29A G44U U55G | < 1e-05 | < 1e-05 |  |  | 
26 | U45G A52C | < 1e-05 |  |  |  | 

Row | Variant | self-cleavage kobs at 40 uM GlcN6P (glucosamine-6-phosphate [1]) [s⁻¹] | self-cleavage kobs at 10000 uM GlcN6P (glucosamine-6-phosphate [2]) [s⁻¹] | self-cleavage kobs at 640 uM GlcN6P (glucosamine-6-phosphate [3]) [s⁻¹] | self-cleavage kobs at 160 uM GlcN6P (glucosamine-6-phosphate [4]) [s⁻¹] | self-cleavage kobs at 2500 uM GlcN6P (glucosamine-6-phosphate [5]) [s⁻¹]
27 | A33U C61U C70G | < 1e-05 |  |  |  | 
28 | G44U A52U G62C | < 1e-05 |  |  | < 1e-05 | < 1e-05
29 | G13C G37A C50U G59C | < 1e-05 |  | < 1e-05 |  | < 1e-05
30 | G7C A15G | < 1e-05 | < 1e-05 |  |  | 
31 | U54G U56C | 6.58e-05 ± 1.3e-05 | 0.00518 ± 0.0011 | 0.000986 ± 0.00024 | 0.000146 ± 2.8e-05 | 0.00123 ± 0.00029
32 | G7A A12U | < 1e-05 | 7.91e-05 ± 2e-05 |  | < 1e-05 | 2.22e-05 ± 8.3e-06
33 | C10A A48G U49G | < 1e-05 | < 1e-05 | < 1e-05 | < 1e-05 | < 1e-05
34 | C16G G29U U46G | 4.6e-05 ± 1.8e-05 | 0.00136 ± 0.00039 |  |  | 
35 | A33C G43A U47G | < 1e-05 |  | < 1e-05 | < 1e-05 | < 1e-05
36 | A12U U49C | < 1e-05 |  |  |  | < 1e-05
37 | G38C G44U C58U A64U | < 1e-05 | < 1e-05 |  |  | 
38 | G9A U65C | < 1e-05 | < 1e-05 | < 1e-05 | < 1e-05 | < 1e-05
39 | G29A G37U G40U U65G C68U | < 1e-05 |  |  |  | 
40 | A15G C68A C70U | < 1e-05 |  |  |  | 
41 | G29U G35A G40C A42G | < 1e-05 |  |  |  | 
42 | U31A G38U A42C U55G | < 1e-05 |  | < 1e-05 |  | 
43 | C61U U65A | < 1e-05 | < 1e-05 | < 1e-05 |  | 
44 | G44C C67U C68U | < 1e-05 |  |  | < 1e-05 | 
45 | A33G C71U | < 1e-05 | < 1e-05 |  |  | 
46 | U30C G35A C50G C61U A64G | 0.000165 ± 5.1e-05 |  |  |  | 
47 | A6U G38A | < 1e-05 |  |  |  | 
48 | G38U A53C | < 1e-05 |  | < 1e-05 | < 1e-05 | < 1e-05
49 | U46A C50G A53U C70G | 0.000147 ± 6.3e-05 | 0.000126 ± 3.8e-05 |  |  | 
50 | C16U G41A U56C | < 1e-05 | 3.75e-05 ± 1.4e-05 |  |  | 
51 | C10A U46G C68G | 0.000169 ± 4.8e-05 | 6.66e-05 ± 2.2e-05 |  |  | 
52 | G9A G13A | < 1e-05 |  | < 1e-05 | < 1e-05 | < 1e-05

Source: the supplement of paper PMC7125110
